Laboratory results taken from article PMC6034166.

Target: ethylenediamine-N,N′-disuccinic acid lyase (EDDS lyase) from Chelativorans sp. BNC1 (Chelativorans sp. BNC1)
Test: SEC + other: dynamic light scattering

With “ethylenediamine-N,N′-disuccinic acid lyase (EDDS lyase) from Chelativorans sp. BNC1 (enzyme)” the stoichiometry N was 4.
